Test results published in article doi:10.1101/2022.04.08.487625.

T1: Flag-mut-RNase HEC (catalytically dead RNase HI) (E. coli, UniProt P0A7Y4 1-155, D10R;E48R)
T1 sequence: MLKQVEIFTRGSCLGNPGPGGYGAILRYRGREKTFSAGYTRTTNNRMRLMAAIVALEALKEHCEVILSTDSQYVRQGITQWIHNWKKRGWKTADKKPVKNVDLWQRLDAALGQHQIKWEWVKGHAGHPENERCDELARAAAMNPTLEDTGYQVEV

B1: Dig-RD hybrid (25 bp RNA/DNA) (DNA:RNA)
DNA: GATTCATACCTGTCGTGCCAGCTGC
RNA: GCAGCUGGCACGACAGGUAUGAAUC
B2: unlabeled RD hybrid (25 bp RNA/DNA) (DNA:RNA)
DNA: GATTCATACCTGTCGTGCCAGCTGC
RNA: GCAGCUGGCACGACAGGUAUGAAUC

Key:
[1] = target: T1, Flag-mut-RNase HEC (catalytically dead …); assay: EMSA
[2] = target: T1, Flag-mut-RNase HEC (catalytically dead …); assay: competition

Row | Binder | binding result [1] | binding result [2]
1 | B1 | binds | –
2 | B2 | – | binds
